From patent publication US20230348573A1 (KEIO UNIVERSITY, published 2023) come the findings set out here.

By Kd is commonly meant a measure of binding affinity in units of concentration. Low values mean higher affinity, high ones lower affinity.

For test [1], the target named is T1, RBD derived from SARS-CoV-2 (Wuhan strain) (SARS-CoV-2 (Wuhan strain), UniProt P0DTC2 319-541).
T1 construct: domain: RBD
Description: RBD beads, antibody 0.25 µg/mL, then labelled ACE2, flow cytometry. In general terms: A flow cytometer gives signals particle by particle.

Test [2] has as its target T1, RBD derived from SARS-CoV-2 (Wuhan …). Description: BLI (Octet), RBD of the Wuhan strain. In general terms: BLI is a label-free optical method that tracks binding on a fibre tip over time.
The target is the same in test [3]. Description: RBD beads, antibody 1 µg/mL, then labelled ACE2, flow cytometry.
For test [4], the target named is T2, full-length spike protein of SARS-CoV-2 (Wuhan strain) (SARS-CoV-2 (Wuhan strain), UniProt P0DTC2 14-1273).
T2 construct: whole, on cells; Expressed in 293T cells
Description: ACE2 competition, spike on 293T cells, antibody 4 µg/mL.

For test [5], the target named is T1, RBD derived from SARS-CoV-2 (Wuhan …). The test is described as follows: RBD beads, antibody 4 µg/mL, then labelled ACE2, flow cytometry.
Test [6] has as its target T2, full-length spike protein of SARS-CoV-2 …. The test is described as follows: ACE2 competition, 293T cells, antibody 4 µg/mL.
The target of test [7] is spike protein of SARS-CoV-2 (Wuhan strain) on pseudovirus (SARS-CoV-2 (Wuhan strain), UniProt P0DTC2 14-1254). The test is described as follows: cell-based or functional assay.

B1: Ab308 (antibody, V domains shown)
VH: EVQLVQSGAEVKKPGSSVKVSCKASGGTFSSYAINWVRQAPGQGLEWMGRIIPMFGIANYAQKFQGRVTITANKSTSTAYMDLSSLRSEDTAVYYCARSQYYYDSSGYYFDYWGQGTLVTVSS
VL: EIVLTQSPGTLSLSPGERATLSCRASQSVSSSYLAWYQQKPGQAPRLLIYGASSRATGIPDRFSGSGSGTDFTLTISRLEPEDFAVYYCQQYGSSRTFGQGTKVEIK
Consider B1, for which the “fluorescence of ACE2 protein” value worked out at 1390 in test [1], 432 in test [3] and 59 in test [5]. In test [2], this molecule gave a Kd of 6.62 nM. Besides, in test [4], the “binding amount (%) of ACE2 protein” value was 3.5%. In addition, in test [6], the “ACE2 binding (no antibody = 100)” value came out at 4.1.

B2: Ab354 (antibody, V domains shown)
VH: QVQLVQSGAEVKKPGASVTVSCKASGFLFTGYYMHWVRQAPGQGLEWMGWINPNSGASNYTRKFQGRVTMTRDTSISATYMKLSRLTSDDTAVYYCARDLAFSMVRGALDYWGQGTLVTVSS
VL: QLVLTQPPSASGSPGQSVTISCTGTSSDVGGYNYVSWYQHHPGKAPKLMIYEVSKRPSGVPDRFSGSKSGNTASLTVSGLQAEDEADYYCNSYAGNNNWVFGTGTKVTVL
For the molecule B2, the “fluorescence of ACE2 protein” value stood at 409 in test [1], 64.8 in test [3] and 42.9 in test [5]. Moreover, in test [2], the Kd came out at 0.0726 nM. The “binding amount (%) of ACE2 protein” value in test [4] came out at 0.3%. For the same molecule, in test [6], the “ACE2 binding (no antibody = 100)” value turned out to be 0.3. Further, the “IC50 of pseudovirus infection (luciferase)” value in test [7] is 0.0559 µg/mL.

B3: Ab326 (antibody, V domains shown)
VH: EVQLVESGGGVVQPGRSLRLSCAASGFTFSHYPMHWVRQAPGRGLEWVAVISYDGSNQHYVDSVKGRFTISRDNSKNTLYLQMNSLRAEDTAVYFCASLITMIRGVPDYWGQGTLVTVSS
VL: DIQMTQSPSSLSASVGDRVTITCRASQSISNYLNWYQQKPGKAPNLLIFAASSLQSGVPSRFSGSGSGTEFTLTISSLQPEDFAAYYCLQTYSTPRTFGQGTRLEIK
As to B3, the “fluorescence of ACE2 protein” value in test [1] was 516; in test [3] it was 39.9; in test [5] it was 38.4. Besides, the Kd in test [2] was determined as 0.0514 nM. Also, the “binding amount (%) of ACE2 protein” value in test [4] worked out at 0.2%. Besides, in test [6], the “ACE2 binding (no antibody = 100)” value is 0.2. The “IC50 of pseudovirus infection (luciferase)” value in test [7] was 0.031 µg/mL.
